pIC50, pKd: −log10 of the molar value.
Legend:
[1] = biological target: HLA-A*02:01; assay: IEDB peptide-MHC binding, purified MHC/competitive/fluorescence; ≥ and ≤ were set here for values at or beyond the usual limits of such assays; conditions: source organism: Zaire ebolavirus
[2] = biological target: HLA-B*08:01; assay: IEDB peptide-MHC binding, purified MHC/competitive/radioactivity; filed as Kd, often an IC50 or EC50 that approximates it; ≥ and ≤ were set here for values at or beyond the usual limits of such assays
[3] = biological target: HLA-A*02:03; assay: as above; conditions: source organism: Dengue virus 3 Martinique/1243/1999
[4] = biological target: HLA-A*24:02; assay: as above
[5] = biological target: HLA-A*01:01; assay: as above
[6] = biological target: HLA-A*23:01; assay: as above
[7] = biological target: HLA-A*29:02; assay: as above
[8] = biological target: HLA-A*26:01; assay: as above
[9] = biological target: HLA-A*30:02; assay: as above
[10] = biological target: HLA-A*30:01; assay: as above; conditions: source organism: Vaccinia virus WR
[11] = biological target: HLA-A*68:01; assay: as above; conditions: source organism: Vaccinia virus WR
[12] = biological target: HLA-A*11:01; assay: as above; conditions: source organism: Vaccinia virus WR
[13] = biological target: HLA-A*03:01; assay: as above; conditions: source organism: Vaccinia virus WR
[14] = biological target: HLA-A*31:01; assay: as above; conditions: source organism: Vaccinia virus WR
[15] = biological target: HLA-A*33:01; assay: as above; conditions: source organism: Vaccinia virus WR
[16] = source organism: SARS coronavirus Tor2
[17] = source organism: Mammarenavirus whitewaterense
[18] = source organism: Mammarenavirus brazilense

QVSDVDKLV
pIC50 [1]: ≤ 4.15

MLKRVRNRV
pKd ([2]; source organism: Dengue virus 3 Martinique/1243/1999): 7.73 | pKd [3]: 7.84

ACADGTRHTY
pKd [4, 16]: ≤ 4.15 | pKd [5, 16]: 5.67 | pKd [6, 16]: ≤ 4.15 | pKd [7, 16]: 5.21 | pKd [8, 16]: ≤ 4.06 | pKd [9, 16]: 7.48

IKRKLRTLIL
pKd ([2]; source organism: Dengue virus 1 Brazil/97-11/1997): 5.24

KALSKLISK
pKd [10]: 7.15

KTLDISSFY
pKd [11]: 6.73 | pKd [12]: 8.19 | pKd [13]: 7.72 | pKd [14]: 7.05 | pKd [15]: ≤ 4.38 | pKd [10]: 7.63

MDLEKRHVL
pKd ([2]; source organism: Dengue virus 2 Jamaica/1409/1983): 7.17

QYIKWPWYVW
pKd [4, 16]: 8.61 | pKd [5, 16]: ≤ 4.49 | pKd [6, 16]: 9.11 | pKd [7, 16]: 5.41 | pKd [8, 16]: ≤ 4.16 | pKd [9, 16]: 4.97

FYLYLTFYF
pKd [4, 16]: ≤ 4.11 | pKd [5, 16]: 5.43 | pKd [6, 16]: ≤ 4.53 | pKd [7, 16]: ≤ 4.12 | pKd [8, 16]: 5.69 | pKd [9, 16]: ≤ 4.01

LARTAKVKN
pIC50 [1]: ≤ 3.67

ALKRRLRTL
pKd ([2]; source organism: Dengue virus 4 Philippines/H241/1956): 8.72

ETLLPLTQY
pKd [4, 16]: ≤ 4.11 | pKd [5, 16]: ≤ 4.48 | pKd [6, 16]: ≤ 4.11 | pKd [7, 16]: 6.58 | pKd [8, 16]: 7.36 | pKd [9, 16]: 5.37

KTSSGRMPV
pKd [10]: 8.71

DHHFTPQII
pKd [4, 17]: ≤ 4.36 | pKd [5, 17]: 7.21 | pKd [6, 17]: 4.95 | pKd [7, 17]: 5.53 | pKd [8, 17]: ≤ 4.11 | pKd [9, 17]: ≤ 4.29

RYNLDPDSI
pKd [4, 18]: 4.75 | pKd [6, 18]: 5.13 | pKd [7, 18]: ≤ 4.47

NTLISSDGAR
pKd [11]: 8.22 | pKd [12]: 6.44 | pKd [13]: 5.63 | pKd [14]: 6.59 | pKd [15]: 6.54 | pKd ([7]; source organism: Vaccinia virus WR): ≤ 4.33
